{
  "source": "paper PMC7337057",
  "origin": "cited, not measured here",
  "key": {"Glu120": {"target": "Glu120 (UniProt position 120, VGREQERRGHF)", "experiment": "NMR (solid-state)", "conditions": "not stated for this study (around 0 °C is stated for related SSNMR work from the same laboratory); 0.2 μM K+; K+ titrated at constant pH and ionic strength (value not stated); low ambient K+ (0.2 μM): K+-apo, collapsed selectivity filter, pH gate favoured open"}, "Glu118": {"target": "Glu118 (UniProt position 118, WFVGREQERRG)", "experiment": "NMR (solid-state)", "conditions": "not stated for this study (around 0 °C is stated for related SSNMR work from the same laboratory); 0.2 μM K+; K+ titrated at constant pH and ionic strength (value not stated); low ambient K+ (0.2 μM): K+-apo, collapsed selectivity filter, pH gate favoured open"}},
  "data": [
    {"substance": "KcsA potassium channel (pH-gated K+ channel) (Streptomyces lividans)", "values": [
      {"measurement": "pKa", "setting": "Glu120", "result": "above 7.5"},
      {"measurement": "pKa", "setting": "Glu118", "result": "above 7.5"}
    ]}
  ]
}
